{"source": "patent US20210292396A1", "binders": {"B1": {"name": "ePGT121.18.17 (ePGT121.18.H17 VH and ePGT121.17.L1 VL) (antibody, V domains shown)", "VH": "QMQLQESGPGLVKPGETLSLTCSVSGASISSSYWSWLRETPGKGLEWIGYTHHSGDTNYAPSLKSRVTIGLDPSKNQVSLSLTSVTAADTAVYYCARTLHGRRIYGVVAFNEYYTYFYWPTWGKGTQVTVSS", "VL": "SDISVAPGETVRITCGGESIGSRAVQWYQHRPGQAPRLIIYNNQDRPPGIPERFSGSPDIDFGTTATLTISNVEAGDEATYYCHIWDSRRPTNWELGPGTTLTVL"}}, "test_in_all_cases": "cell-based or functional assay", "key": {"[1]": {"target": "208-member cross-clade virus panel"}, "[2]": {"target": "Env of HIV isolate 0815.v3.c3 (clade ACD) (HIV)"}, "[3]": {"target": "Env of HIV isolate 16936-2.21 (clade C) (HIV)"}, "[4]": {"target": "Env of HIV isolate 246-F3.C10.2 (clade AC) (HIV)"}, "[5]": {"target": "Env of HIV isolate 263-8 (clade AG) (HIV)"}, "[6]": {"target": "Env of HIV isolate 3016.v5.c45 (clade D) (HIV)"}, "[7]": {"target": "Env of HIV isolate 3326.v4.c3 (clade CD) (HIV)"}, "[8]": {"target": "Env of HIV isolate 3468.v1.c12 (clade AD) (HIV)"}, "[9]": {"target": "Env of HIV isolate 3718.v3.c11 (clade A) (HIV)"}, "[10]": {"target": "Env of HIV isolate 6471.v1.c16 (clade C) (HIV)"}, "[11]": {"target": "Env of HIV isolate 6535.3 (clade B) (HIV)"}, "[12]": {"target": "Env of HIV isolate A07412M1.vrc12 (clade D) (HIV)"}, "[13]": {"target": "Env of HIV isolate AC10.29 (clade B) (HIV)"}, "[14]": {"target": "Env of HIV isolate BB539.2B13 (clade A) (HIV)"}, "[15]": {"target": "Env of HIV isolate BJOX010000.06.2 (clade AE) (HIV)"}, "[16]": {"target": "Env of HIV isolate Bal.01 (clade B) (HIV)"}, "[17]": {"target": "Env of HIV isolate C4118.09 (clade AE) (HIV)"}, "[18]": {"target": "Env of HIV isolate CH181.12 (clade BC) (HIV)"}, "[19]": {"target": "Env of HIV isolate CNE10 (clade B) (HIV)"}, "[20]": {"target": "Env of HIV isolate CNE20 (clade BC) (HIV)"}, "[21]": {"target": "Env of HIV isolate CNE4 (clade B) (HIV)"}, "[22]": {"target": "Env of HIV isolate DU151.02 (clade C) (HIV)"}, "[23]": {"target": "Env of HIV isolate MB539.2B7 (clade A) (HIV)"}, "[24]": {"target": "Env of HIV isolate SO18.18 (clade C) (HIV)"}, "[25]": {"target": "Env of HIV isolate SS1196.01 (clade B) (HIV)"}, "[26]": {"target": "Env of HIV isolate T250-4 (clade AG) (HIV)"}, "[27]": {"target": "Env of HIV isolate T278-50 (clade AG) (HIV)"}, "[28]": {"target": "Env of HIV isolate T33-7 (clade AG) (HIV)"}, "[29]": {"target": "Env of HIV isolate TZBD.02 (clade C) (HIV)"}, "[30]": {"target": "Env of HIV isolate UG037.8 (clade A) (HIV)"}, "[31]": {"target": "Env of HIV isolate ZM214.15 (clade C) (HIV)"}, "[32]": {"target": "Env of HIV isolate ZM233.6 (clade C) (HIV)"}, "[33]": {"target": "Envelope protein of SIVmac251.30.SG3 (clade NA)"}, "[34]": {"target": "HIV Env of isolate 0013095-2.11 (HIV)"}, "[35]": {"target": "HIV Env of isolate 191821.E6.1 (HIV)"}, "[36]": {"target": "HIV Env of isolate 6471.v1.c16 (HIV)"}, "[37]": {"target": "HIV Env of isolate 6785.v5.c14 (HIV)"}, "[38]": {"target": "HIV Env of isolate DU172.17 (HIV)"}, "[39]": {"target": "HIV Env of isolate TV1.29 (HIV)"}, "[40]": {"target": "HIV Env of isolate TZA125.17 (HIV)"}, "[41]": {"target": "HIV Env of isolate X2131.C1.B5 (HIV)"}, "[42]": {"target": "HIV Env of isolate ZM214.15 (HIV)"}, "[43]": {"target": "HIV Env of isolate ZM55.28a (HIV)"}}, "data": [{"binder": "B1", "values": [{"measurement": "% vs Neutralized, IC50 < 0.01 ug/ml", "setting": "[1]", "value": 40, "unit": "%"}, {"measurement": "% vs Neutralized, IC50 < 0.1 ug/ml", "setting": "[1]", "value": 61, "unit": "%"}, {"measurement": "% vs Neutralized, IC50 < 1.0 ug/ml", "setting": "[1]", "value": 69, "unit": "%"}, {"measurement": "% vs Neutralized, IC50 < 10 ug/ml", "setting": "[1]", "value": 74, "unit": "%"}, {"measurement": "% vs Neutralized, IC50 < 50 ug/ml", "setting": "[1]", "value": 76, "unit": "%"}, {"measurement": "% vs Neutralized, IC80 < 0.01 ug/ml", "setting": "[1]", "value": 14.4, "unit": "%"}, {"measurement": "% vs Neutralized, IC80 < 0.1 ug/ml", "setting": "[1]", "value": 53.4, "unit": "%"}, {"measurement": "% vs Neutralized, IC80 < 1.0 ug/ml", "setting": "[1]", "value": 63.5, "unit": "%"}, {"measurement": "% vs Neutralized, IC80 < 10 ug/ml", "setting": "[1]", "value": 67.8, "unit": "%"}, {"measurement": "% vs Neutralized, IC80 < 50 ug/ml", "setting": "[1]", "value": 70.7, "unit": "%"}, {"measurement": "Geometric Mean (IC50)", "setting": "[1]", "value": 0.0202, "unit": "µg/mL"}, {"measurement": "Geometric Mean IC80", "setting": "[1]", "value": 0.0443, "unit": "µg/mL"}, {"measurement": "Median IC50", "setting": "[1]", "value": 0.009, "unit": "µg/mL"}, {"measurement": "Median IC80", "setting": "[1]", "value": 0.02, "unit": "µg/mL"}, {"measurement": "Total VS Neutralized, IC50 < 0.01 ug/ml (viruses of 208)", "setting": "[1]", "value": 83}, {"measurement": "Total VS Neutralized, IC50 < 0.1 ug/ml (viruses of 208)", "setting": "[1]", "value": 126}, {"measurement": "Total VS Neutralized, IC50 < 1.0 ug/ml (viruses of 208)", "setting": "[1]", "value": 143}, {"measurement": "Total VS Neutralized, IC50 < 10 ug/ml (viruses of 208)", "setting": "[1]", "value": 154}, {"measurement": "Total VS Neutralized, IC50 < 50 ug/ml (viruses of 208)", "setting": "[1]", "value": 158}, {"measurement": "Total VS Neutralized, IC80 < 0.01 ug/ml (viruses of 208)", "setting": "[1]", "value": 30}, {"measurement": "Total VS Neutralized, IC80 < 0.1 ug/ml (viruses of 208)", "setting": "[1]", "value": 111}, {"measurement": "Total VS Neutralized, IC80 < 1.0 ug/ml (viruses of 208)", "setting": "[1]", "value": 132}, {"measurement": "Total VS Neutralized, IC80 < 10 ug/ml (viruses of 208)", "setting": "[1]", "value": 141}, {"measurement": "Total VS Neutralized, IC80 < 50 ug/ml (viruses of 208)", "setting": "[1]", "value": 147}, {"measurement": "IC50, pseudovirus neutralization", "setting": "[2]", "value": 0.005, "unit": "µg/mL"}, {"measurement": "IC50, pseudovirus neutralization", "setting": "[3]", "value": 0.004, "unit": "µg/mL"}, {"measurement": "IC50, pseudovirus neutralization", "setting": "[4]", "value": 18.5, "unit": "µg/mL"}, {"measurement": "IC50, pseudovirus neutralization", "setting": "[5]", "value": 0.02, "unit": "µg/mL"}, {"measurement": "IC50, pseudovirus neutralization", "setting": "[6]", "value": "> 50", "unit": "µg/mL"}, {"measurement": "IC50, pseudovirus neutralization", "setting": "[7]", "value": 0.633, "unit": "µg/mL"}, {"measurement": "IC50, pseudovirus neutralization", "setting": "[8]", "value": 0.004, "unit": "µg/mL"}, {"measurement": "IC50, pseudovirus neutralization", "setting": "[9]", "value": 0.957, "unit": "µg/mL"}, {"measurement": "IC50, pseudovirus neutralization", "setting": "[10]", "value": 1.09, "unit": "µg/mL"}, {"measurement": "IC50, pseudovirus neutralization", "setting": "[11]", "value": 0.002, "unit": "µg/mL"}, {"measurement": "IC50, pseudovirus neutralization", "setting": "[12]", "value": 0.004, "unit": "µg/mL"}, {"measurement": "IC50, pseudovirus neutralization", "setting": "[13]", "value": 0.004, "unit": "µg/mL"}, {"measurement": "IC50, pseudovirus neutralization", "setting": "[14]", "value": "> 50", "unit": "µg/mL"}, {"measurement": "IC50, pseudovirus neutralization", "setting": "[15]", "value": "> 50", "unit": "µg/mL"}, {"measurement": "IC50, pseudovirus neutralization", "setting": "[16]", "value": 0.003, "unit": "µg/mL"}, {"measurement": "IC50, pseudovirus neutralization", "setting": "[17]", "value": "> 50", "unit": "µg/mL"}, {"measurement": "IC50, pseudovirus neutralization", "setting": "[18]", "value": 0.004, "unit": "µg/mL"}, {"measurement": "IC50, pseudovirus neutralization", "setting": "[19]", "value": 0.004, "unit": "µg/mL"}, {"measurement": "IC50, pseudovirus neutralization", "setting": "[20]", "value": 0.002, "unit": "µg/mL"}, {"measurement": "IC50, pseudovirus neutralization", "setting": "[21]", "value": 0.008, "unit": "µg/mL"}, {"measurement": "IC50, pseudovirus neutralization", "setting": "[22]", "value": 0.003, "unit": "µg/mL"}, {"measurement": "IC50, pseudovirus neutralization", "setting": "[23]", "value": "> 50", "unit": "µg/mL"}, {"measurement": "IC50, pseudovirus neutralization", "setting": "[24]", "value": 0.004, "unit": "µg/mL"}, {"measurement": "IC50, pseudovirus neutralization", "setting": "[25]", "value": 0.004, "unit": "µg/mL"}, {"measurement": "IC50, pseudovirus neutralization", "setting": "[26]", "value": 0.002, "unit": "µg/mL"}, {"measurement": "IC50, pseudovirus neutralization", "setting": "[27]", "value": 1.2, "unit": "µg/mL"}, {"measurement": "IC50, pseudovirus neutralization", "setting": "[28]", "value": "> 50", "unit": "µg/mL"}, {"measurement": "IC50, pseudovirus neutralization", "setting": "[29]", "value": 0.003, "unit": "µg/mL"}, {"measurement": "IC50, pseudovirus neutralization", "setting": "[30]", "value": 0.009, "unit": "µg/mL"}, {"measurement": "IC50, pseudovirus neutralization", "setting": "[31]", "value": 0.08, "unit": "µg/mL"}, {"measurement": "IC50, pseudovirus neutralization", "setting": "[32]", "value": 0.017, "unit": "µg/mL"}, {"measurement": "IC50, pseudovirus neutralization", "setting": "[33]", "value": "> 50", "unit": "µg/mL"}, {"measurement": "IC80, pseudovirus neutralization", "setting": "[34]", "value": 13.4, "unit": "µg/mL"}, {"measurement": "IC80, pseudovirus neutralization", "setting": "[35]", "value": 0.727, "unit": "µg/mL"}, {"measurement": "IC80, pseudovirus neutralization", "setting": "[36]", "value": 10, "unit": "µg/mL"}, {"measurement": "IC80, pseudovirus neutralization", "setting": "[37]", "value": 0.015, "unit": "µg/mL"}, {"measurement": "IC80, pseudovirus neutralization", "setting": "[38]", "value": 0.018, "unit": "µg/mL"}, {"measurement": "IC80, pseudovirus neutralization", "setting": "[39]", "value": 0.031, "unit": "µg/mL"}, {"measurement": "IC80, pseudovirus neutralization", "setting": "[40]", "value": 0.549, "unit": "µg/mL"}, {"measurement": "IC80, pseudovirus neutralization", "setting": "[41]", "value": 0.007, "unit": "µg/mL"}, {"measurement": "IC80, pseudovirus neutralization", "setting": "[42]", "value": 0.294, "unit": "µg/mL"}, {"measurement": "IC80, pseudovirus neutralization", "setting": "[43]", "value": 0.029, "unit": "µg/mL"}]}]}
